This is an account of results in patent US20130202615A1 (VACCINEX, published 2013).

The target of test [1] is T1, VEGF (UniProt P15692-4 27-191, limits assumed).
T1 construct: also called VEGF-A; vascular endothelial growth factor
The test can be described thus: competition ELISA: titrated antibody and biotinylated bevacizumab added to a VEGF-coated plate, bound biotinylated bevacizumab detected with Strep-HRP; competitor: biotinylated bevacizumab. Background: In an ELISA, binding on a coated surface is turned into a signal by an enzyme label.

The target of test [2] is T1, VEGF. The test can be described thus: summary table of MAb7392 characterization; affinity by Biacore, rounded form of the value in Table 2; summary Table 6, rounded value. An excerpt:
(§1) Data was fit with a bivalent model for affinity determination.

Test [3] has as its target T1, VEGF. The test can be described thus: Biacore SPR, both antibodies tested under the same conditions.
Source text: as §1
(In general: In SPR one partner is held on a chip, and binding of the other changes the refractive index at the surface.)

The target in test [4] is T1, VEGF. In words: VEGFR1 blocking ELISA: antibody pre-incubated with VEGF, added to a VEGFR1-coated plate.
Test [5] concerns the target T1, VEGF. The test can be described thus: VEGFR2 blocking ELISA: antibody pre-incubated with VEGF, added to a VEGFR2-coated plate.
In test [6] the target is T1, VEGF. In words: Biacore SPR, VEGF immobilized on the chip, antibody as analyte, bivalent model fit.
Source text: as §1

T1 sequence (P15692 other isoform, or with tags, fused parts or gaps limits assumed): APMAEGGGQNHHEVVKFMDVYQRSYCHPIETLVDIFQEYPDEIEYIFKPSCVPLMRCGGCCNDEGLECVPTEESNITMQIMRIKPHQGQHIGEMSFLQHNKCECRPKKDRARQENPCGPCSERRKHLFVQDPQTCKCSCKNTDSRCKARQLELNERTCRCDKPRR

B1: MAb7392 (antibody, V domains shown)
VH: QVQLVQSGAELRKPGASVKISCKASGYSLTYYGMNWVRQAPGQGLEWMGWINTFTGDSTYAQDFTGRFVFSLDTSVSTAYLQISSLKAEDMAMYYCAKYPHYYGSSHWYFDVWGQGTTVTVSS
VL: EIVLTQSPATLSVSPGERATLSCRASQSVNSNLAWYQQKPGQAPRVLIYGASTRATGIPARFSGSGSGTEFTLTISSLQSEDFAVYYCQQYSDIPWTFGQGTKLEIK
notes: also called H7230 + L7104
On to B1, for which, in the test with VEGF [1], the “IC50 (read off the curve)” value is about 600 pM. Besides, the Kd amounted to 900 pM with VEGF [2] and 910 pM with VEGF [6]. Also, the “fold better affinity than bevacizumab” value in the test with VEGF [3] is about 4 fold. Besides, the IC50 (in general, the concentration at which inhibition is half-maximal) with VEGF [4] worked out at 80 pM; with VEGF [5] it was 180 pM.
